Non-standard residues stand in square brackets, D forms with d. Primed or numbered codes have the meaning given here. No end group written: not given here. *: point of attachment. PEG28′ = (PEG)28 spacer, 28 polyethylene glycol repeats; Biotin = O=C1N[C@H]2[C@H](CS[C@H]2CCCCC(=O)*)N1; pY = N[C@@H](Cc1ccc(OP(=O)(O)O)cc1)C(=O)O
Target: T1, LAIR-1 ITIM phosphopeptide (PEG28-ITIM) (Mus musculus)
T1 chain: {Biotin-PEG28′}-DLQEVT[pY]IQLDHH
Assay: SPR

Kd: 9.38 µM
B1: SHP-1 (protein)
chain: not shown

Source: paper PMC5365251 (2017)
